Drawing on patent publication US20160138094, “Direct, Programmable Detection of Epigenetic DNA Cytosine Modifications using TAL Effectors” (UNIVERSITÄt KONSTANZ, published 2016), this text covers binding result and IC50 for 2 molecules.

The target in series [1] is T1, TALE_97 (HD at repeat 5 opposite C6) (Xanthomonas axonopodis pv. citri …, UniProt B2SU53). Nature of the series: EMSA; Tris, NaCl, MgCl2, salmon sperm DNA, room temperature. The conditions noted are these: tags: N-terminal thioredoxin and S-tag, C-terminal His6; label: 5'-32P on reverse strand. From the text:
Oligonucleotides 97_C2/5/6/11/12/14 mC_rev (SEQ ID NO: 5) and 97_T3/4/8/9/10/16 mC_rev (SEQ ID NO: 8) were 5′-³²P-end labeled using γ-³²P-ATP and T4 polynucleotide kinase (Fermentas) and purified using a G-25 gel filtration column (GE Healthcare). Oligonucleotides were hybridized pairwise (97/97_C2/5/6/11/12/14 mC_rev (SEQ ID NO: 3/SEQ ID NO: 5); 97_C2/5/6/11/12/14 mC/97_C2/5/6/11/12/14 mC_rev (SEQ ID NO: 4/SEQ ID NO: 5); 97_T3/4/8/9/10/16 C/97_T3/4/8/9/10/16 mC_rev (SEQ ID NO: 6/SEQ ID NO: 8); 97_T3/4/8/9/10/16 mC/97_T3/4/8/9/10/16 mC_rev (SEQ ID NO: 7/SEQ ID NO: 8)) at a concentration of 12.5 nM, respectively, by incubating at 95° C. for 5 min and subsequently at room temperature for 30 min in Hybridization buffer (40 mM Tris-HCl (pH=8.0), 100 mM NaCl, 10 mM MgCl₂, 100 ng/μl salmon sperm DNA (Ambion), 0.2 mg/ml BSA, 10% glycerol). For TALE-binding, to 6 μL of the hybridized DNA duplexes, 6 μL of TALE storage buffer (20 mM Tris-HCl pH=7.5, 200 mM NaCl, 10% Glycerol, 1 mM DTT) with varying concentrations of TALE proteins were added and mixtures were incubated at room temperature for 30 min. Mixtures were loaded onto an analytical, non-denaturing PAGE-gel (0.5 mm, 50 cm length) that was run in 0.25×TB buffer at 12 W and room temperature. Gel was dried and data recorded on a phosphorimager.
(Mobility shift assays separate free from complexed probe on a gel.)

The target in series [2] is T1, TALE_97 (HD at repeat 5 opposite C6). Nature of the series: inhibition; inhibition of Klenow exo- primer extension, MgCl2, room temperature. Particulars: tags: N-terminal thioredoxin and S-tag, C-terminal His6; label: 5'-32P on primer; 5' overhang template with primer duplex at template 3' end. As to the method: Templates as shown in FIG. 2 (SEQ ID NOs: 9 to 14) and primer p97_rev (SEQ ID NO: 15; 5′-³²P-end labeled as above) were diluted from 5× stocks (500 nM and 166.5 nM, respectively) into 6 μL Hybridization buffer (40 mM Tris-HCl (pH 8.0), 100 mM NaCl, 10 mM MgCl₂, 0.2 mg/ml BSA, 10% glycerol) to final concentrations of 100 nM and 33.3 nM and hybridized by incubating at 95° C. for 5 min and subsequently at room temperature for 30 min. TALE proteins with various RVDs at position 5 were added in 6 μL TALE storage buffer (200 mM NaCl, 20 mM Tris-HCl (pH 7.5), 1 mM DTT, 10% glycerol) at varying concentrations and mixtures were incubated at room temperature for 30 min. 12 μL of a mixture of 25 mU Klenow Fragment of E. coli DNA polymerase I (3′-5′-exo⁻, New England Biolabs) and 200 μM of each dNTP in Binding buffer (30 mM Tris-HCl (pH 8.0), 150 mM NaCl, 5 mM MgCl₂, 0.1 mg/ml BSA, 0.5 mM DTT, 7.5% glycerol) were added, resulting in final concentrations of 8.325 nM and 25 nM for primer and template, respectively. These mixtures were incubated at room temperature for additional 15 min. 12 μL of PAGE loading buffer (80% formamide, 2 mM EDTA) were added, the mixtures were incubated at 95° C. for 5 min and cooled to 4° C. […] Gel was dried and data recorded on a phosphorimager. […]

B1: 97 / 97_C2/5/6/11/12/14mC_rev duplex (dsDNA)
DNA 1: AGACGGCATACGATCTTCCGTTTCCACATCCACCACATCCCAACAGAGCAGCGGGAGCAGCAGTAAAGATCGGAAGAGC
DNA 2: GCTCTTCCGATCTTTACTGCTGCTCCCGCTGCTCTGTTGGGATGTGGTGGATGTGGAAACGGAAGATCGTATGCCGTCT
B1: the binding result in series [1] is listed as “binds”.

B2: t97 template / p97_rev primer (dsDNA)
DNA 1: TGGATTCCCACTCTTCAGCCCCAGCGTTACAGCATCTTCAGTGGCTTCTTCCACCGTGAGCTCTTCCGTTTCCACATCC
DNA 2: GGATGTGGAAACGGAAGA
As for B2, in series [2], it took 0.106 µM to reach half-maximal inhibition (IC50).
